In patent US12324826B2, “Compositions and methods to mitigate or prevent an immune response to an immunogenic therapeutic molecule in non-human primates” (Jomoco, Corp, priority 2015, dated 2025):

Legend:
[1] = tested on: ADA against the potentially immunogenic therapeutic agent; test: NHP preclinical pharmacokinetic study: ADA development with immunosuppressant plus immunogenic therapeutic agent; format: in vivo
Procedure: Administration of a basiliximab loading dose on Day 0 of the NHP preclinical pharmacokinetic study is followed on Day 1 by administration of a basiliximab maintenance dose and the potentially immunogenic therapeutic agent. Basiliximab is dosed approximately every 10 days to maintain a serum concentration at which CD25 is almost completely bound by basiliximab (about 200 ug/mL). The therapeutic agent is dosed at the proscribed interval and dose.
Administration of a nanocarrier encapsulated rapamycin (NER) loading dose on Day −2, −1, or 0 of the NHP preclinical pharmacokinetic study is followed on Day 0 by administration the potentially immunogenic therapeutic agent. NER and the therapeutic agent are then co-administered at the proscribed dose and intervals of every 1-4 weeks for as many as 12 weeks, following which the immunogenic therapeutic agent may be administered without NER.
Basiliximab is dosed approximately every 10 days to maintain a serum concentration at which CD25 is almost completely bound by basiliximab (about 200 ug/mL). Rapamycin is dosed daily or every other day during the course of basiliximab administration to maintain a rapamycin trough level within the range of 4-12 ng/mL. Following this treatment regimen, the immunogenic therapeutic agent may be administered without the immunosuppressant combination.

[2] = tested on: ADA against the potentially immunogenic therapeutic agent
Procedure: Administration of a basiliximab loading dose on Day 0 of the NHP toxicology study is followed on Day 1 by administration of a basiliximab maintenance dose and the potentially immunogenic therapeutic agent. Basiliximab is dosed approximately every 10 days to maintain a serum concentration at which CD25 is almost completely bound by basiliximab (about 200 ug/mL). The therapeutic agent is dosed at the proscribed interval and dose.
Administration of a nanocarrier encapsulated rapamycin (NER) loading dose on Day −2, −1, or 0 of the NHP toxicology study is followed on Day 0 by administration the potentially immunogenic therapeutic agent. NER and the therapeutic agent are then co-administered at the proscribed dose and intervals of every 1-4 weeks for as many as 12 weeks, following which the immunogenic therapeutic agent may be administered without NER.
Basiliximab is dosed approximately every 10 days to maintain a serum concentration at which CD25 is almost completely bound by basiliximab (about 200 ug/mL). Rapamycin is dosed daily or every other day during the course of basiliximab administration to maintain a rapamycin trough level within the range of 4-12 ng/mL. Following this treatment regimen, the immunogenic therapeutic agent may be administered without the immunosuppressants.

basiliximab
development of ADA in the immunosuppressant treated group ([1]; NHP given immunosuppressant and potentially immunogenic therapeutic agent, compared with control group given therapeutic agent alone): no ADA develops or the level of ADA is sufficiently low
pharmacokinetic parameters of the therapeutic agent in the immunosuppressant treated group ([1]; NHP given immunosuppressant and therapeutic agent, altered in the control group due to ADA): unaltered
development of ADA ([2]; NHP toxicology study, immunosuppressant plus therapeutic agent, compared with therapeutic agent alone): prevents the development of ADA
immune mediated drug induced liver injury (DILI) in the group given immunosuppressant and therapeutic agent ([2]; in vivo): develop immune mediated drug induced liver injury (DILI)
